Here are results for two molecules from US20210087296A1 (published 2021).

In assay [1] the target is T1, MMP-14 catalytic domain mutant F204A (human, UniProt P50281 114-287, limits assumed).
T1 construct: Position as printed
Nature of the assay: competitive ELISA, mutant in solution against immobilised wild-type MMP-14. (In general: An ELISA detects its analyte on a solid surface through an enzyme-linked reagent.)
Experimental: (§1) Fab ELISA. Purified Fab was serially diluted in MMP-14-coated wells followed by incubation at ambient temperature for 1 hr. Bound Fabs were detected using the anti-Fab-HRP conjugate. The half-maximal effective concentration (EC₅₀) was calculated from a four-parametric logistic curve-fitting analysis.

For assay [2], the target named is T2, MMP-14 catalytic domain mutant Y203A (human, UniProt P50281 114-287, limits assumed).
T2 construct: Position as printed
The assay is described as above.
Experimental: as §1

The target in assay [3] is T3, MMP-14 catalytic domain mutant T190A (human, UniProt P50281 114-287, limits assumed).
T3 construct: Position as printed
The assay is described as above.
Experimental: as §1

The target of assay [4] is T4, MMP-14 catalytic domain mutant F198A (human, UniProt P50281 114-287, limits assumed).
T4 construct: Position as printed
Described as above.
Experimental: as §1

Assay [5] deals with T5, MMP-14 catalytic domain mutant N231A (human, UniProt P50281 114-287, limits assumed).
T5 construct: Position as printed
The assay is described as above.
Experimental: as §1

Assay [6] has as its target T6, matrix metalloproteinase-14 catalytic domain (cdMMP-14) (human, UniProt P50281 114-287, limits assumed, biotinylated with EZ-Link Sulfo-NHS-LC-Biotin for ELISA; amine-coupled to CM5 chip for SPR).
T6 construct: also called catalytic domain of MMP-14; wild-type MMP-14
The assay can be described thus: ELISA, purified Fab titrated on immobilised biotin-cdMMP-14, anti-Fab-HRP.
Experimental: After labeling purified cdMMP-14 using EZ-Link Sulfo-NHS-LC biotinylation kit (Thermo Fisher), biotin-cdMMP-14 was incubated in a streptavidin coated ELISA plate (Thermo Scientific) blocked with biotin-BSA. After washing, 50 μL of 2 M Fabs were then added to the first well and serially diluted to ˜1 nM and incubated for 30 minutes at 4° C. After washing, the ELISA signals were developed by anti-Fab-HRP (Sigma) and TMB (Thermo Scientific). The color development reaction was stopped by addition of H₂SO₄, and the absorptions at 450 nm were measured.

B1: Fab 3A2 (Fab, V domains shown)
VH: EVQLVESGGGLVQPGGSLRLSCAASGFNLSSSSMHWVRQAPGKGLEWVASIYPSYSYTYYADSVKGRFTISADTSKNTAYLQMNSLRAEDTAVYYCARVKLQKDKSHQWIRNLVATPYGRYVMDYWGQGTLVTVSS
VL: DIQMTQSPSSLSASVGDRVTITCRASQSVSSAVAWYQQKPGKAPKLLIYSASSLYSGVPSRFSGSRSGTDFTLTISSLQPEDFATYYCQQYGYPITFGQGTKVEIKR
notes: Synthetic human Fab from E. coli periplasm; also called R3C9; not shown: His tag at C-terminus of heavy chain
With B1, the binding result in assay [1], in assay [2], in assay [3], in assay [4] and in assay [5] was “binds” throughout.

B2: Fab R2C14 (Fab, V domains shown)
VH: EVQLVESGGGLVQPGGSLRLSCAASGFNIYSSSIHWVRQAPGKGLEWVASIYSYSGYTYYADSVKGRFTISADTSKNTAYLQMNSLRAEDTAVYYCARVSNRYNRSSASIAGLQLFRPYGMDYWGQGTLVTVSS
VL: DIQMTQSPSSLSASVGDRVTITCRASQSVSSAVAWYQQKPGKAPKLLIYSASSLYSGVPSRFSGSRSGTDFTLTISSLQPEDFATYYCQQSSYSLITFGQGTKVEIKR
notes: Fab
The term EC50 denotes the concentration at which the effect is half-maximal. The low end stands for a more potent agent, the high end for a less potent agent. Turning to B2, in assay [6], the EC50 is 1.2 nM. In other words, the single-digit nanomolar range.
